The experiment has as its target MCM helicase hexamer (Mcm2-7) (yeast) (UniProt P29469). Put plainly: negative-stain EM.

“ORC variant lacking the N-terminal 119 amino acids of Orc6, P54784;P32833;P54790;P54791;P50874;P38826” displayed a decrease of MO formation against wild type ORC of 50%.

(Values after article PMC6887548.)
